B1: SAGA-associated factor 29 (Homo sapiens), Q96ES7 (parent)
chain: MALVSADSRIAELLTELHQLIKQTQEERSRSEHNLVNIQKTHERMQTENKISPYYRTKLRGLYTTAKADAEAECNILRKALDKIAEIKSLLEERRIAAKIAGLYNDSEPPRKTMRRGVLMTLLQQSAMTLPLWIGKPGDKPPPLCGAIPASGDYVARPGDKVAARVKAVDGDEQWILAEVVSYSHATNKYEVDDIDEEGKERHTLSRRRVIPLPQWKANPETDPEALFQKEQLVLALYPQTTCFYRALIHAPPQRPQDDYSVLFEDTSYADGYSPPLNVAQRYVVACKEPKKK

Variants of: B1
Details: with h31_human H3C1, P68431

| effect of a mutation on the interaction | Variant |
| --- | --- |
| disrupting interaction | Y245A |

Variants of: B1
Details: with h31_human H3C1, P68431
Remark: another data set of the same source

| effect of a mutation on the interaction | Variant |
| --- | --- |
| decreasing interaction | D266A |

Variants of: B1
Details: with h31_human H3C1, P68431
Remark: another data set of the same source

| effect of a mutation on the interaction | Variant |
| --- | --- |
| disrupting interaction | D194A |

Variants of: B1
Details: with h31_human H3C1, P68431
Remark: another data set of the same source

| effect of a mutation on the interaction | Variant |
| --- | --- |
| decreasing interaction | T242A |

Variants of: B1
Details: with h31_human H3C1, P68431
Remark: another data set of the same source

| effect of a mutation on the interaction | Variant |
| --- | --- |
| decreasing interaction | D196A |

Variants of: B1
Details: with h31_human H3C1, P68431
Remark: another data set of the same source

| effect of a mutation on the interaction | Variant |
| --- | --- |
| disrupting interaction | D196A |

Variants of: B1
Details: with h31_human H3C1, P68431
Remark: another data set of the same source

| effect of a mutation on the interaction | Variant |
| --- | --- |
| disrupting interaction | D196R |

Variants of: B1
Details: with h31_human H3C1, P68431
Remark: another data set of the same source

| effect of a mutation on the interaction | Variant |
| --- | --- |
| decreasing interaction | F264A |

Variants of: B1
Details: with h31_human H3C1, P68431
Remark: another data set of the same source

| effect of a mutation on the interaction | Variant |
| --- | --- |
| decreasing interaction | Y238A |

Variants of: B1
Details: with h31_human H3C1, P68431
Remark: another data set of the same source

| effect of a mutation on the interaction | Variant |
| --- | --- |
| decreasing interaction | Q240A |

From IntAct's records for PubMed 21685874
